Read-outs that look alike come from different tables or passages of the source. Positions of bridges follow the written chain, without caps; N, C: chain ends. Residues, ends and D or L forms follow the SMILES beside them. Chains are numbered I, II in the order given. No end group written: not given here. PEG = not defined here
Key:
CD40L = biological target: T1, CD40L (Homo sapiens, UniProt P29965); test: Octet Red label-free association/dissociation analysis; type: binding
T1 sequence (P29965 113-261 limits assumed): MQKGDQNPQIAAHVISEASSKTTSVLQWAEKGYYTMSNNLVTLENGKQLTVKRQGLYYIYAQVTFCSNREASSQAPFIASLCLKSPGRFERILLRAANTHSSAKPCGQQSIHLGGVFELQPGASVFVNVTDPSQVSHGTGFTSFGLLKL
Procedure: Label-free analyses of the associations and dissociations of base peptides and serine derivatives of base peptides with the CD40L target protein were performed using the Octet Red system (ForteBio, Inc., USA) according to the manufacturer's instructions. These analyses provide kinetic constants of CD40L binding activity, especially the association rate constant (Ka) and dissociation rate constant ([…]) of binding, i.e., measures of the “on” and “off” rates of the peptides relative to soluble CD40L.

CD40L-CD40 interaction = biological target: T2, CD40L-CD40 interaction (Homo sapiens, UniProt P29965); test: Chemiluminescent proximity assay (Alphascreen); type: binding
T2 sequence (P29965 113-261 limits assumed): T1 sequence (P29965 113-261 limits assumed)
Procedure: In one example, the Alphascreen assay (PerkinElmer) was employed according to the manufacturer's instructions.
Homodimers and heterodimers were also assayed by chemiluminescent proximity assay for their ability to inhibit CD40L-CD40 interaction.

CD40 ligand [1] = biological target: T3, CD40 ligand (UniProt P29965 108-261, limits assumed); test: cell-based or functional assay
T3 sequence (looked up): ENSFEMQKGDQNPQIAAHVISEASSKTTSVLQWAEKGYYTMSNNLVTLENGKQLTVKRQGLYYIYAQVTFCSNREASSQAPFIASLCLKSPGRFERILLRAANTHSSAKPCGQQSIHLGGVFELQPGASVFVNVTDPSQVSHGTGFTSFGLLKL

CD40 ligand [2] = biological target: T3, CD40 ligand; test: Alphascreen, PEGylated peptide, inhibition of CD40L/CD40-Fc
CD40 ligand [3] = biological target: T3, CD40 ligand; test: Alphascreen, unmodified peptide, inhibition of CD40L/CD40-Fc
CD40 ligand [4] = biological target: T3, CD40 ligand; test: Octet Red label-free (BLI)
CD40 ligand [5] = biological target: T3, CD40 ligand; test: phage-displayed peptide on bound CD40L, soluble CD40L as competitor
CD40 ligand [6] = biological target: T3, CD40 ligand; test: cell-based or functional assay; remark: listed apart in the source
CD40 ligand [7] = biological target: T3, CD40 ligand; test: Alphascreen proximity assay, inhibition of CD40L-CD40
[8] = Cys-Ser derivative peptides, read-out: KD value
[9] = base peptides, equilibrium dissociation constant, read-out: KD

## CC[C@H](C)[C@H](NC(=O)[C@H](CC(C)C)NC(=O)[C@H](Cc1c[nH]c2ccccc12)NC(=O)[C@H](CCSC)NC(=O)[C@H](CCC(=O)O)NC(=O)CNC(=O)[C@H](CCC(=O)O)NC(=O)[C@H](CC(C)C)NC(=O)[C@H](CO)NC(=O)[C@H](CCC(=O)O)NC(=O)[C@@H](NC(=O)[C@@H](N)CCCNC(=N)N)[C@@H](C)CC)C(=O)N[C@@H](CC(N)=O)C(=O)N1CCC[C@H]1C(=O)N[C@@H](Cc1ccccc1)C(=O)N[C@@H](CC(N)=O)C(=O)NCC(=O)N[C@@H](CCC(=O)O)C(=O)N[C@H](C(=O)N[C@@H](CC(C)C)C(=O)N[C@@H](CC(=O)O)C(=O)N[C@@H](CCC(=O)O)C(=O)N[C@@H](Cc1c[nH]cn1)C(=O)N[C@H](C(=O)N[C@@H](CC(C)C)C(=O)N[C@@H](CCC(=O)O)C(=O)N[C@H](C(=O)N[C@@H](Cc1c[nH]c2ccccc12)C(=O)N[C@@H](CC(C)C)C(=O)N[C@@H](CCCCN)C(=O)O)C(C)C)[C@@H](C)O)[C@@H](C)O [CD40L M8_748] (H-RIESLEGEMWLINPFNGETLDEHTLEVWLK-OH)
CD40L
  Kd: 5 nM
CD40L-CD40 interaction
  EC50: 184 nM

## PFTWRPTIFWIIQLIVYMRHFGGGGSRSELLRENICRYVSLFDHPLQRNTPLDELRFVIFDTETSGFDLVKDRILSIR [CD40L D1_0014]
CD40L
  Kd: 48 nM
CD40L; heterodimer versus N-terminal monomer, from Table 2 data
  higher affinity for CD40L than the base monomeric peptide: 6 fold

## CC[C@H](C)[C@H](NC(=O)[C@H](CC(N)=O)NC(=O)[C@H](Cc1ccccc1)NC(=O)[C@@H]1CCCN1C(=O)[C@@H](NC(=O)[C@H](CC(N)=O)NC(=O)[C@@H](NC(=O)CNC(=O)[C@H](Cc1ccccc1)NC(=O)[C@H](CC(C)C)NC(=O)[C@@H](NC(=O)[C@H](Cc1ccccc1)NC(=O)[C@H](CO)NC(=O)[C@@H](N)Cc1c[nH]cn1)C(C)C)C(C)C)C(C)C)C(=O)N[C@H](C(=O)N[C@@H](CC(=O)O)C(=O)N[C@@H](Cc1ccccc1)C(=O)N[C@@H](CCC(N)=O)C(=O)N[C@@H](CCSC)C(=O)N[C@@H](CCCNC(=N)N)C(=O)N[C@H](C(=O)N[C@@H](CCCCN)C(=O)N[C@@H](CO)C(=O)O)C(C)C)[C@@H](C)CC [CD40L M1_42s] (H-HSFVLFGVNVPFNIIDFQMRVKS-OH)
CD40L; [8]
  Kd: 100 nM

## CC[C@H](C)[C@H](NC(=O)[C@H](C)NC(=O)[C@@H](NC(=O)[C@H](CCSC)NC(=O)[C@H](CCC(=O)O)NC(=O)[C@H](CO)NC(=O)[C@@H](N)CC(C)C)[C@@H](C)CC)C(=O)N[C@@H](Cc1ccc(O)cc1)C(=O)N[C@H](C(=O)N[C@@H](Cc1ccccc1)C(=O)N[C@@H](CC(C)C)C(=O)N[C@@H](Cc1c[nH]c2ccccc12)C(=O)N[C@@H](CCCCN)C(=O)N[C@@H](CCCCN)C(=O)N[C@H](C(=O)N[C@@H](Cc1ccccc1)C(=O)N[C@@H](CC(C)C)C(=O)O)C(C)C)C(C)C [CD40L M7_217s] (H-LSEMIAIYVFLWKKVFL-OH; N-terminus and C-terminus assumed)
CD40L; [8]
  Kd: 100 nM

## CC(C)C[C@H](NC(=O)[C@H](Cc1ccc(O)cc1)NC(=O)[C@H](CC(=O)O)NC(=O)[C@H](CCCNC(=N)N)NC(=O)[C@H](CCCNC(=N)N)NC(=O)[C@H](Cc1ccccc1)NC(=O)[C@H](CO)NC(=O)[C@H](CO)NC(=O)[C@H](Cc1ccc(O)cc1)NC(=O)[C@H](Cc1ccccc1)NC(=O)[C@H](CCCNC(=N)N)NC(=O)[C@H](Cc1ccccc1)NC(=O)[C@H](CC(C)C)NC(=O)[C@H](Cc1ccccc1)NC(=O)[C@H](Cc1ccccc1)NC(=O)[C@H](CC(C)C)NC(=O)[C@H](CC(N)=O)NC(=O)[C@H](Cc1ccc(O)cc1)NC(=O)[C@H](CCCNC(=N)N)NC(=O)[C@@H]1CCCN1C(=O)[C@@H]1CCCN1)C(=O)N[C@@H](Cc1ccc(O)cc1)C(=O)N[C@@H](Cc1ccccc1)C(=O)O [CD40L M1_9s] (H-PPRYNLFFLFRFYSSFRRDYLYF-OH)
CD40L; [8]
  Kd: 300 nM

## CC[C@H](C)[C@H](NC(=O)[C@H](CC(N)=O)NC(=O)[C@H](Cc1ccccc1)NC(=O)[C@@H]1CCCN1C(=O)[C@@H](NC(=O)[C@H](CC(N)=O)NC(=O)[C@@H](NC(=O)CNC(=O)[C@H](Cc1ccccc1)NC(=O)[C@H](CC(C)C)NC(=O)[C@@H](NC(=O)[C@H](Cc1ccccc1)NC(=O)[C@H](CO)NC(=O)[C@@H](N)Cc1c[nH]cn1)C(C)C)C(C)C)C(C)C)C(=O)N[C@H](C(=O)N[C@@H](CC(=O)O)C(=O)N[C@@H](Cc1ccccc1)C(=O)N[C@@H](CCC(N)=O)C(=O)N[C@@H](CCSC)C(=O)N[C@@H](CCCNC(=N)N)C(=O)N[C@H](C(=O)N[C@@H](CCCCN)C(=O)N[C@@H](CS)C(=O)O)C(C)C)[C@@H](C)CC [CD40L M1_42] (H-HSFVLFGVNVPFNIIDFQMRVKC-OH; N-terminus and C-terminus assumed)
CD40L; [9]
  Kd: 30 nM

## {PEG}-HPFSIKNVFSIWNFFSVY (reading uncertain, also called PEGylated M1_6S) [PEGylated CD40L M1_6s]
CD40 ligand [1]
  EC50 PEGylated peptide, inhibition of CD40L-induced CD86 expression on primary B-cells: 1.5 nM
CD40 ligand [2]
  EC50: 48 nM

## HPFSIKNVFCIWNFFSVY (Base peptide) [CD40L M1_6]
CD40 ligand [3]
  EC50: 440 nM
CD40 ligand [4]
  Kd: 24 nM
CD40 ligand [5]
  IC50: 16.3 nM

B1: Cys_M1_6S-Cys_M1_189S heterodimer (peptide)
peptide 1: CHPFSIKNVFSIWNFFSVY
peptide 2: CLLLFFFSPPFSIFSFSLTTLS
modifications: disulfide I:1-II:1
notes: also called 6-189 dimer
CD40 ligand [6]
  EC50, inhibition of CD40L-induced CD86 expression on primary B-cells: 140 nM
CD40 ligand [7]
  EC50: 0.000174 nM

## {PEG}-PPRYNLFFLFRFYSSFRRDYLYF (reading uncertain, also called PEGylated M1_9S) [PEGylated CD40L M1_9s]
CD40 ligand [1]
  EC50 PEGylated peptide, inhibition of CD40L-induced CD86 expression on primary B-cells: 180 nM
CD40 ligand [2]
  EC50: 48 nM

## {PEG}-LPFVPYRSHVLKYGWFFPVQWSIFAVLPFQYLHRSR (reading uncertain, also called PEGylated M1-18S) [PEGylated CD40L M1_18s]
CD40 ligand [1]
  EC50 PEGylated peptide, inhibition of CD40L-induced CD86 expression on primary B-cells: 90 nM
CD40 ligand [2]
  EC50: 3300 nM

## {PEG}-DAAGREFFQIAGLFSFRHHWWQA (reading uncertain, also called PEGylated M1_30S) [PEGylated CD40L M1_30s]
CD40 ligand [1]
  EC50 PEGylated peptide, inhibition of CD40L-induced CD86 expression on primary B-cells: > 2000 nM
CD40 ligand [2]
  EC50: 32 nM

## {PEG}-HSFVLFGVNVPFNIIDFQMRVKS (reading uncertain, also called PEGylated M1_42S) [PEGylated CD40L M1_42s]
CD40 ligand [1]
  EC50 PEGylated peptide, inhibition of CD40L-induced CD86 expression on primary B-cells: 5000 nM
CD40 ligand [2]
  EC50: 112 nM

## {PEG}-PRWVRNRFYSLFVPSGVQRGGIHLWFSNWVR (reading uncertain, also called PEGylated M1_50S) [PEGylated CD40L M1_50s]
CD40 ligand [1]
  EC50 PEGylated peptide, inhibition of CD40L-induced CD86 expression on primary B-cells: 30 nM
CD40 ligand [2]
  EC50: 1500 nM

## LCEMIAIYVFLWKKVFL [CD40L M7_217]
CD40 ligand [1]
  EC50 unmodified peptide, inhibition of CD40L-induced CD86 expression on primary B-cells: 2500 nM

## PRWVRNRFYCLFVPSGVQRGGIHLWFSNWVR (Base peptide) [CD40L M1_50]
CD40 ligand [5]
  IC50: 45.8 nM

## {PEG}-LLYVKVISFFSMLVQYNNFQTYK (reading uncertain) [PEGylated CD40L M2_159s]
CD40 ligand [2]
  EC50: 120 nM

## PFTWRPTIFWIIQLIVYMRHF (Base peptide; also called CD40L M1-206) [CD40L M7_206]
CD40 ligand [3]
  EC50: 190 nM
CD40 ligand [4]
  Kd: 280 nM

B2: CD40L M8_720 (peptide)
peptide: RLPETRKAQAALATKYGIYGFCYYHYWFNGRRILESPVDAMLESGEPDFPFMLCWANENWT
notes: Base peptide
CD40 ligand [3]
  EC50: 238 nM
CD40 ligand [4]
  Kd: 4 nM

## LWRLNEWNYSDAELLSLIEWCIDH (Base peptide) [CD40L M8_721]
CD40 ligand [3]
  EC50: 524 nM
CD40 ligand [4]
  Kd: 7 nM

B3: CD40L M9_789 (peptide)
peptide: LLAEQAGTLKSELEAMPLGEYEHAARYVSEVECNWKTFAGNYSECDHCHANHQDWITDIELEESELEVNDYHWILHYTHDEDVEDEMRIHDEHEAKFYYFWPNFT
notes: Base peptide
CD40 ligand [3]
  EC50: 331 nM
CD40 ligand [4]
  Kd: 4 nM

## {PEG}-SIQYHWRYSRFKYYFQLIWVYYSHV (reading uncertain) [PEGylated CD40L M1_82s]
CD40 ligand [2]
  EC50: 120 nM

B4: LAEHAVWSLKcFPDWEWYNINIFGTDDPNHFWVEcDGHGKILFPGYPEGYYENHFLHSFELED (peptide)
peptide: LAEHAVWSLKCFPDWEWYNINIFGTDDPNHFWVECDGHGKILFPGYPEGYYENHFLHSFELED
modifications: not fully specified
CD40L; [9]
  Kd: 8 nM
CD40L-CD40 interaction; monomeric non-PEGylated (unmodified) base peptide; 50% reduction in control emission at 520-620 nm; read-out: EC50nmodified) CD40L/CD40-Fc/BAF617
  EC50: 197 nM

— patent publication US20130266605A1, “PEPTIDE INHIBITORS OF CD40L SIGNALING AND USES THEREFOR” (PHYLOGICA LIMITED, priority 2010, published 2013)
